Measurements reported in the domain aggregation screens of Martell et al. (2025).

Assay: soluble fraction after stress (log2 fold change); higher = more stays soluble; pooled small domains, quantitative proteomics
Conditions: stress: 75 degC
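Note: 20 min heating vs room temperature control held 20 min.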

Sequence	soluble fraction (log2)
HMGAKLTTAQGGTLKVLVKGKKTHTPTIELRDKDPDFPNAKVVQPDINKGNKQIAHGINGVL	0.686
HMGALAITPDFVGQTREEAERFLRDLDLSFDIGGKGDRILRQEPVAGQRMNLDQPMKLWVGSMNA	0.245
HMGANAVAAFTARVRTGPSTGYPVRISVPQGRQVRVISGPYGGWYRVSYQGLTGYTYGGLLRQG	-0.673
HMGAPAISYSKFLEQVDRKNVASVTIYKDGRIDGVMTSGSRFATESPSDPGLVGDLLKAGVEIRAKPP	0.177
HMGAPVIYELTAESAAGQRIDKYLSGQLADLSRSYLQKLLKDGGVEVNKKPVKSNYKLSEGDQIRLEVPEA	0.0457
HMGAQINSPISGTILKYLVKNGDKITKDQPLVNIESMKMENTIKSDKEGIVNNINFKIGDSVNTADTLLTL	0.0698
HMGAQKITIPDFSNQEATQVYAELKNMGLEYTESRMNHPSIASGYVIKTEPTKGSEVKAGTTVTVYVSLG	-0.112
HMGARHPLPYPFARAHGLLLEADGERSTLWASTNVSPAALSEVMRKYAVDVIEEEPPETLSQRIAAAYAA	-0.155
HMGASFITSSKDNAINIRESATTDSKVIETIKNGEILESTEKSGDWHKVTYYNSEIKKSFTGYIHNSQLK	0.426
HMGASLVIVPGAGFLRVSASSQTRLDVYSITGMRVRSVDFEPGTTEIELPAGFYIAGGRKFFV	-2.42
HMGAYITYEVKPGDTLWDIANKFPGVSADNIKTWNKVDELIKAGERLKINTQTITDYSPDKYPS	-0.242
HMGDADDLSRELLQQGLSLKEAVADFERRYLQQAMQRHSSIASVSEALDVHFSTLWRKLVKYNLV	-0.104
HMGDADDLTRIKGIGPKLSKTLNELGIYHFRQIAGWQSDEADWVDDYLSFKGRVMREQWIEQAQKFAS	-0.475
HMGDAIPVPDVSGFSEDQAMNNLRKVGLRPKATYVADDNTAKGYVTGTSPAKNIEVAPDSEVIVYVSSGP	0.697
HMGDAPLITVDKRTIKVNGAKAQIQVYDTTGRLVKNVSPAGKLTLIEMAKPGIFIVHTQSMSFKVVL	-0.351
HMGDAVYSKVKDLVNTYNALAKQTGKSDLVSISQSRTWMVNDTKAHEVQWNKIGITIEDDQTLTI	0.0968
HMGDLDLVTFGQRLRHLRRSRNMTLSELGERVGRAPSQLSLLENGKREPKLSLLTALAKALDVSVEEL	-1.05
HMGDLVKGKVVGYDPDNVIVDIGAKTNALVPNREAVVEAGDDIKETLKKGNEYEFLIIRDEDEEGEFL	0.24
HMGDPEYFKKQLGDFMDRFNITSEDIKNLSIAGAINRMMNNAEGEDKTVLSKLLETVNKSGVGNLPAKTI	-0.0106
HMGDPVRVDKFLHDMNVGTRSQIRKLIKEKAVFVNDVVAKSGRVKVDPVVDQVRLGEQVITYQ	-0.245
HMGDPYAILGLLPGASMEDVRHAWRRQAAENHPDRMLQRGAPPEFVEIAREKTAAINAAYARIREELSI	-0.433
HMGDTIGEQKAKEIALEHAGLKSSDVTFIRAVLEYDDRNWEYDVEFYDADTYTEYDYEIDAHTGKILSFDH	0.351
HMGDTPVDFSEFIRWVDTGVVDRVELTGNEIVGTSSSGERFSTYAPPQYEGLGNKLIERDIVVVATAA	-0.0455
HMGDTVSGTMLNLKPGVRVVHQIFGPGRVEETTGASLAEFRVTVRFEQKGLKTLLLQYAALQVINSEN	-1.73
HMGDVKLNAIYNFLKEFSALNGFPPSVREIGAKFGIKSTSTVHYYLEKLKQSGVIQQEENKKRAVVIN	-1.32
HMGDWEDFWEKEARRRKLSLDYQVVRSLSRWSREYDWGEEDVEQFLSQFPEGETVKMEDVELYFE	-1.18

Sequence	soluble fraction (log2)
HMGDYDHYVVKVEDTLLNWLVTNVTTMSRNKLKDILAGQGIKVNGKITTKYDYPLTPGMKIAISKTKR	-1.41
HMGEAIPVPDIRHKSQADAERLLQDQGLAMMVTDTGYVKTLPANYILEQIPVAGEKVKSGHVVYVIINSG	-0.103
HMGEGIRIDSTAVVQVGEKMYAYLGGDGFSKEFWTNLPASGELAVTLKFEPIPMDAESLDFYEMPA	0.307
HMGEILYSGVLKGGDGPEATKLALEKFLGEANTQVAGRIGVQPETQVIWLSREAVDSAASTLSQHKGNMYV	-0.247
HMGELDFYEEMRDDYLTGKIWNVGEIVEAKGMIGEIVRKGTNYISFVTDDNKVHKAWLHEIKL	-0.641
HMGELRAPLPGVIVSIPVKEGDEVKAGQAILIIEAMKMESEISSPIDAKVAKIVVKERVLVQEGDILIILE	-1.33
HMGEMTDFETLRDMYLTGQIWNIDDLIEANGVEGRIVRRGTNYIAFNDRDGKVHKAWLHEVTINE	-0.434
HMGENTIFSGVLGEGRLDSALAHALPQFSRARIQGLIAEDAVLIAGKATNDAASKKFAGQSFELSVPAPRP	0.119
HMGEPQAWNELIGNLLRQWEARQTGWTPARKREALDRVLGAADPAALYTRLQGLLKSWTQAMTDADA	-1.73
HMGEQETILKGDVNRDGVVDVNDVTHLQIHISNDDKNPLIDVTNKAWFDAADMYGDGKLDILDATALQIYI	0.196
HMGERVDGVVKFFNGQKGFGFIQREDGGPDAFVHISAVERAGMAGLDEGQRVSFELELDRRGKQAAINLTP	0.108
HMGESYGPVRRGETLWSIAEKVKPAGVSTQKELAAIYAANPQAFIRGDINLLKAGAELRLPSPEAL	-0.0179
HMGESYQIKDGELLVDIAQRVKPAGMTLRQTINALVAANPRAFRNGNPDLMYRGATLTIPDGDTLRRLAH	-0.0841
HMGEVQALIPGLVSKLFVVEGESVKIGQKLIILEAMKMENEIASPINGTIKKIYIKSGDKIDKGSIIMEIT	-3.41
HMGEVVSAPMPGTILSIKVSQGQTVKRGQVLLILEAMKMENEIVAPRDGVVVQISTTQGASVETGAPLVVL	-1.1
HMGEVYPSDIVEKMKQANLHILEGTLYPLLTRLKNAGLLNYRWVESVTGPPRKYFVMTEEGKAAF	0.13
HMGEWHQMLRSWGETELKNGRQNILDEAVPAFERAMIETALAHTSGRKKDAALLLGWGRNTLTRKLQEHSI	-0.169
HMGEYGVLWYLLTKKEAVSAGELKEKLHVVPGRMTDILTALEKKGLIIRQKNKTDKRVVDVVLTKEGEKEA	-0.731
HMGFAEFWLAYPKKVGKGEAERKWKTLKPDAGAVLSAVKRQSASEQWRKDGGRYIPNPATWLHQRRWE	0.0452
HMGFALLIAIERTGNTTYFVKLTLIKKGSDSDVLKDSFSVSQGDLVGTATYDSVIANRIREKTAAMWQKAT	-2.76
HMGFDTSMNKYTIDDLLKLLELGSNPSQAEIVNKITNFNTIFVDNSGVIQFLNNIQDKLLDNFK	-0.734
HMGFDTVVEKVLGLITSRPMTSRDIQMTLGRSREHTSRLMNRLYKEGLVDRNTSSKPFSYIITEKGREKI	-0.429
HMGFPAPFDGKAVAELRRRLGLTRRGLAEELSVSPSTVDKWEQGDVALRSPALTILKILWHQGLKALPP	-1.78
HMGFSDDEHNALADADLKKALEVTTNKSETQYNIAKLIYSYIISLGDKKPYGDWSYDKALSIIHDA	-0.0187
HMGGAVQIAEQIAARIKDGALRPGELLPPVRQLAAELEVNPNTVASAYARLRDAGLVATRGRAGTVVLEPP	-0.421
HMGGAYATVKLSSSSSQLNVRASASTASRVVARLSHGFRVEVLGVSGDWVKIRALGVEGYVARAYLALEGE	-3.07

Sequence	soluble fraction (log2)
HMGGEAEVLQSIDEGREVEVRSVAADGSAEVIYRGARWRARAAVGSLAAGRWTIGRVDGTELVLEK	-0.0609
HMGGEEKALLFGDVDIREAGEITQRLEQAEIPYELRGDGSSIFVPRSRVMEARMMISADGLL	-0.0934
HMGGEKLPAPVAGTLLRYSVAEGARVSEGQTVIILESMKMELEINTPKAGVIHFLAAVGAQVAEGDTLAEI	-3.46
HMGGGTPEERLATLAAIAERQEMLLERLGPNNPLVSLGQYSRTLSRMVQLAGFKDASQYFNELPLDFQMPE	-0.408
HMGGHLAYGFSRRFGLLIDEQQGEPVIIARPDYSPVHYAEARRIVGQPAALRVVDEQAFNQLLQSQQESGA	-0.512
HMGGLENNLKQARNRVGLTQSELARQAGISRQAYSSLESGAANPSTEVALRLAQALSERVESLFYLPE	-0.117
HMGGNVYAYRLTASVKSGEQIPANKIEKVKMLSSDLPTNYVPDTVNVTAYKSKLDLQAGTILSTSLLYEN	-0.591
HMGGPTARQMEVLSLIAQGLPNKRIADELGIAERTVKLHITALLDSLGARNRTHLLVVARERGM	-2.16
HMGGQKTREAIFDLIMTNSKITSAQIAEILGIHRSGVARHLKKLQEEGLIKREGPDNGGQWIVIK	-0.473
HMGGQYQVRPGETLNQIAARVRPSNMSLSETQKAIIQANPDIFKNGNPNLIFAGDILRIPTGNQI	0.466
HMGGTTLIAKQATVTGDIQFSSNLDIEGRVVGAISVEPGKEAMLHVVEGGSVEGEIRVPSAVINGKVTGDI	0.0791
HMGGVEWLTHPIGPRDSLQVLARAGLEARPTSDGDYEIYGQERWPQRDQARLMGWLRRFGQWVWQALYDK	-0.569
HMGHEALSSKLDEIQGVGKEKRSLLLDHFKTFERIKNASMEELEAVPSLGKNTAKAVFRFFHS	-0.0805
HMGHLTWTVTGIGHERRARTVAEQMSSVFGVLEARASSAGTVYLEFEREKIDEGGLEASLKRMGVTRVV	-2.02
HMGIAFDYDAGRFDQVPPNLVEKWQQAYPAVDVLSELRRMEAWASANPVNRKSNWQRFIVNWLTRAQDRAG	-0.859
HMGIAKYRQVTEWIQNRIATGELNRGDQIESENDISRTFGISRQTVRHALGLLEQQGILTRIQGRGTFVRD	-1.45
HMGIFDIIQEINRQGVTVLLIEQNANMALKIADVGYVLETGRISLTGSGRELLANEAVKKAYL	-1.29
HMGIKYTNQRVEILNFLKDNLSHPTVDDVYEGVKKKLTRISKATVYQNLKFLASKGLIQEVNIKGVSRFEP	-1.98
HMGIRQGKVTSTFVNVRSGASTANAKVGELHKGDVVSLIEKVANFWRIGPGQFVSADYIQVLAS	-2.07
HMGIRYQLADDVTDEQITAMTGKKAKIAAAIKAAGSAVSKMNVAGEMGYDKQNPINKDFMELVDAGIIVPS	-0.0507
HMGISEKVINIIETYTMIARKKYPSVKSLAEHFNVSERTVHRYLEIIKMIDVVDYDREKKGYFFPYGDR	-3.08
HMGISSESIKTFIREIVENEDPKAPLSDQTMVELLAERGIDISRRTVAKYRDEMNLPSSSKRKR	0.87
HMGKAMIDWEREQSILRILLRQKALTTEQAREVYQDGMREDLSALEMGVQRGYFTHEQLREATGGE	-0.278
HMGKASNEVYEVISSKIRTGEWAPGYKLPSEPTLAEEFGVSRATVREALQELISRGRIKREQGRGTYVLH	-0.0316
